# In the nanobody polyreactivity screen of Harvey et al. (2022):
# Assay: yeast display, Sf9 membrane polyspecificity reagent, FACS + sequencing; frameworks hold sequencing errors
# Summary of the method: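 Galactose-induced (36–48 hours) yeast carrying a synthetic nanobody display library were exposed to 10% biotinylated, detergent-solubilized Sf9 membrane reagent at 4 °C for 1 hour. FACS followed streptavidin microbead enrichment, using low and high (top ~1%) gates for expression (anti-HA) and reagent binding (streptavidin). Colony PCR, MiSeq 2 × 250 sequencing and CDR-length filtering followed. Labels for polyreactivity reflect the gate of origin.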
row,Sequence,polyreactivity (PSR sort gate)
1,QVQLVESGGGLVQAGGSLRLSCAASGSIFVDNAMGWYRQAPGKEREMVAAISRRGGSTYYADSVKGRFTISRDNAKNTVYLQMNSLKPEDTAVYYCNKKNIQFYQGASDYWGQGTQVTVSS,high polyreactivity
2,QVQLVESGGGLVQAGGSLRLSCAASGIIFRRYAMGWYRQAPGKERELVAAIRTSGGNTYYADSVKGRFTISRDNAKNTVYLQMNSLKPEDTAVYYCAARRHYTYGNGPSRGGQMDYWGQGTQVTVSS,high polyreactivity
3,QVQLVESGGGLVQAGGSLRLSCAASGITFRYYAMGWYSQAPGKERELVAAITRGGRTNYADSVKGRYTISRDNAKNTVYLQMNSLKPEDTAVYYCAAGRVGRLSEYNYWGQGTQVTVSS,high polyreactivity
4,QVQLVESGGGLVQAGGILRLSCAASGSIFNGYAMGWYRQSPGKERELVAAISWNGGSTYYADSVKGRFTISRDNAKNTFYLLMNSLKPEDTAVYYFAAGGYYDSRTYYYWGQGTQVSVSS,high polyreactivity
5,QVQLVESGGGLVQAGGSLRLSCAASGTIFDSYAKVWYRQAPGKERELVAAISSSVGSTYYADSVKGRFTISRDNAKNTVYLQMNSLKPEDTAVYYCNADEYWASGYDPYDYWGQGTQVTVSS,low polyreactivity
6,QVQLVESGGGLVQAGGSLRLSCAASGILYYYAMGWYRQAPGKERELVAAITSGGSTNYADSVKGRFTISRDNAKNTVYLQMNSLKPEDTAVYYCNARRWWVIRDYWGQGTQVTVSS,high polyreactivity
7,QVQLVESGGGLVQAGGSLRLSCAASGRTFGPNVMGWYIQAPRKERELVAAITSGGTTYYADSVKGRFTISRDNANNTVYLLMNSLKPEDTAVYYCAKVLRGGRYDYWGQGTQVTVSS,low polyreactivity
8,QVQLEESGGCLVQAGGRIRLSCAASGLTFHRYAMGWYRQAPGKERELVAAINYSGGRTYYADSVKGRFTISRDNATNNVYLQMNSLKPEDTAVYYCAAPSASGYYWGQGNQVTVSS,high polyreactivity
9,QVQLVESRGGIVQAGGSLRLSCAASGSIFTGNAMGWYRQAPGKERELVAAITSSAGSTYYADSVKGRFTISRDNAQYTVYLQMNSLKPEDTAVYYCAKDYYSKHFPNYDYWGQGTQVTVSS,low polyreactivity
10,QVQLVESGGGLVQAGGSLRLSCAASGSIFSYNAMGGYRPAPGKARELVAAITLSDGGTYYADSVKGRFTISRDNAKNTVYLQMNSLKPEDTAVYYCATTYWLWITYSAYYYWGQGSQVTVSS,low polyreactivity
11,QVQLVESGGGLVQAGGSLRLSCAASGSIFIGNTMGWYRPAPGNERELVATIRRSGSRTYYADSVKGRFTISRDNAKNTVYLQMNSLKPEDTAVYYCAADRLRTSGYKTIYDYWGQGTQVTVSS,low polyreactivity
12,QVQLVESGGGLVQAGGSLRLSCAASGRTFAGNAMGWYRQAPGKEREMVAAISVSGSTTYYADSVKGRFTISRDNAKNTVYLQMNSLKPEDTAVYYCAARGLTYRSDMYYWGQGTQVTVSS,low polyreactivity
13,QVQLVESGGGLVQAGGSLRLSCAASGFTFDFYAMGWYRQAPGKERELVAAISKNDGTTYYADSVKGRFTISRDNAKNTVYLQMNSLKPEDTAVYYCAAESGYAVYTYVSSGDYWGQGTQVTVSS,low polyreactivity
14,QVQLVESGGGLVQAGGSLRLSCAASGSIFAWYALGWYRQAPGKERELVADITQSGGSTYYADSVKGRFTISRDNAKNTVYLQMNSLKPEDTAVYYCVDYWYNYLQSGWEDDYWGQGTQVTVSS,low polyreactivity
15,QVQLVESGGGIVQAGGSLRLSCAASGRTFYAYTMGWYRQAPGKETELVAANSRTGGRTYYADSVKGRFTISRDNAKNTVYLQMNSLKPEDTAVYYCAAGSKPGIQFRSVYSAYRYYYCGQGTQVTVSS,high polyreactivity
16,QVQLVESGGGLVQAGGSLRLSCAASGLTFYTNAKGWYRQAPGKEREFVDAITSSGGRKYYADSVKGRFTISRDNAKNTVYLQMNSLKPEDTAVYYCAADARRPRIPEMYYWGQGTQVTVSS,high polyreactivity
17,QVQLVESGGGLVQAGGSLRLSCAASGSIFPRNTMGWYRQAPGKERELVAAMSSGASTYYADSVKGRFTISRDNAKNTVYLQMNSLKPEDTAVYYCAKRYQDTSPKDGENEYWGQGTQVTVSS,low polyreactivity
18,QVQLVESGGGLVQAGGSLRLSCAASGRIFAFNAMGWYRQAPGTESELVAAINWSGTTTYYADSVKGRFTISRDNAKNTVYLQMNSLKPEDTAVYYCAADVTFRGYAKYYYWGQGTQVTVSS,low polyreactivity
19,QVQRVESGGGLFQAGGRLRLSCAATGSIFTPNAMGWYRQAPGKERELVAAISSSSDRTYYADSVKGRFTISRDKAKNTVYLQMNSLKPEDTAVYYCAAYAQKRYYWGQGTQVTVSS,high polyreactivity
20,QVQLVESGGGLVQAGGSLRIRCAASGLIFGFYAMGWYRQAPGKERELVAAINSGGITYYADSVKGRFTISRDNAKNTVYLQMNSLKPEDTAVYYCNKDSHISTAYDYWGQGTQVTVSS,low polyreactivity
21,HVQLVEAGGGLVQAGGSLRLSCAASGSTLQYYAMGWYRQAPGKERELVAAITSTGSRTYYADSVKGRFTISRDNAKNTVYLLMNSLKPADTAVYYCAADIYDGEYDYWGQGTQVTVSS,high polyreactivity
22,QVQLVESGGGLVKAGGSLRLSCAASGRIFNWYAMGWYRQAPGKEREFVAAITFSGGSTYYADSVKGRFTISRDNAKNTVYLQMNSLKPEDTAVYYCAAEIYFFVSYDYWGQGTQVTVSS,low polyreactivity

row,Sequence,polyreactivity (PSR sort gate)
1,QVQLVESGGGLVQAGGSLRLSCAASGFIFRDNAMGWYRQAPGKERELVASIRSSGGRTYYADSVKGRFTISRDNAKNTVYLQMNSLKPEDTAVYYCARRWYPVTPYARMYYWGQGTQVTVSS,low polyreactivity
2,QDQLVESGGGLVQAGGSLRLSCAASGFNFDSYAMRWYIQAPGKERELVAAMSWSGSSTYSADSVKGRFTISRDNAKNTGYLQMNSLKPEDTAVYYCAALVYPYWGGSMYYWGQGTQVTVSS,high polyreactivity
3,QAQLQESGGSLVQAGGGLRLSCAASGYISVGSVMGWYRQAPSKERELVASIDQGANTNYADSVKGRFTISRDNAKNNVYLQMNSLKPEDSAVYYCATETTYILNYWGQGTQVTVSS,low polyreactivity
4,QVQLVESGGGLVQAGGSIRLTCAASGRIFYLNAMGWYRQAPGKEREMGAAITWSGGRTYYADSVKGRFTISRDNAKNTVYLQMNSLKPEDTAVYYCAAVPRPGPNTVLTPYGYWGQGTQVTVSS,high polyreactivity
5,QVQLVESGGGLVQAGGSLRLSCAASGLILANYAMGWYRQAPGKDRELVAAISSSGGSTYYADSVKGRFTISRDNAKNTVYLQMNSLKPEDTAVYYCAAYPLYRRRWTGDYWGQGTQVTVSS,high polyreactivity
6,QDQLVESGGGLVQAGGSLRLSCAASGFIIIGNAMGWYRQAPGKERELVAAISRRGGSTYYADSVKGRFTISRDHAKNTVYLQMNSLKPEDTALYYCNALTRRQKGGEGGGYWGQGTQVTVSS,high polyreactivity
7,QVHLVESGGGLVQAGGSLRISFAASGRTFPYYDMGWYRQAPGKERELVAAINSGGRTNYADSVKGRFTISRDNAKNTVYLQLNSLKPEDTAVYYCTKRGHPSRLGYYYWGLGTQVTVSS,low polyreactivity
8,QVQLVESGGGLVQAGGSLRLSCAASGFTFSRNTMGSSRQAPGKERELVARIPASGGSTYYADSVKGRFTISRDNAKNTVYLLMNSLNPEDTAVYYCAAVYRRYGASRYDYWGQGTQVTVSS,high polyreactivity
9,QVQLVESGGRLVQAGGSLRLSCAASGRTFDYYDMGWYRQAPGKERELVAAITWGGGSTYYADSVKGRFSISRDNAKNTVYLQMNSLKPEDTAVYYCNADHFGWPWRVRIHEDDYWGQGTQVTVSS,low polyreactivity
10,QVQLVESGGGLVQAGGSLLLSCAASGSTFSYYAMGWYRPAPGKERELVATITKRGGSTYYADSVKGRFTISRDNAKNTFYVQLNSLKPEDTAVYDCAASYPSRWRATYPTGFEYWGQGTQVTVSS,high polyreactivity
11,QVQLVESGGGLVQAGGSLRLSCAASGGIFHSNAMGWYRQAPGKERELVAAISYSGGSTYYADSVKGRFTISRDNAKNTVYLQMNSLKPEDTAVYYCAKRYYGSPQLRYYYWGQGTQVTVSS,high polyreactivity
12,QVQLVESGGGLVQAGGSLRISCAASGSTFKIYAMGWYRQAPGKERELVAAITGGGSSTYYADSVKGRFTISRDNSKNTVYLQMNSLKPEDTAVYYCAADLSGADSTGDYYYWGQGTQVTVSS,low polyreactivity
13,QVQLVESGGGLVQAGGSLRLSCAASGSTYYWYMGWYRQAPGKERELVAAITSGGRTYYADSVKGRFTISRDNAKNTVYLQMNSLKPEDTAVYYCARPYSRAYDYWGQGTQVTVSS,high polyreactivity
14,QVQLVESGGGLVQAGGSLRLSCAASGSTFGHYVMGWYRQATGKERELVAAISYNGGSTYYADSVKGRFTISRDNAKNTVYLQMNSLKPEDTAVYSCAARGSYSFYRRVDYWGQGTQVTVSS,high polyreactivity
15,QVQLVESGGGLVQAGGSLRLSCAASGRTFRYYAMGWYRPAPGKERELVATITGSGGSTYYADSVKGRFTISRDNAKNTVYLQMNSLKPEDTAVYDCNARKVRYPYRWYVYWGQGTQVTVSS,high polyreactivity
16,QVQLVESGGGLVKAGGSLRLSCAASGSTFSRYAKGWYRQAPGKEREFVAAISKSGGGTYYADSVKGRFTISRDNAKNTVYLQMNSMKPEETAVYYCARRVRYKHYDYWGQGSQVTVSS,high polyreactivity
17,QVQLVESGGGLVQAGGSLRLSCAASGSTFNSYTMGWYRKAPGKERELVAAITLSGGRTYYADSVKGRFTISRDNAKNTVYLQMNSLKPEDTAVYYCAAYCRASWERDYWGQGTQVTVTS,low polyreactivity
18,QVQLVESGGGLVQAGGSLRLSCAASGRTFSRYTMGWYRQAPGKERELVAAISVNGGTTHYADSVKGRFTISRDNAKNTVYLQMNSLKPEDTAVYYCNARRRVGKYKYDYWGQGTQVTVSS,high polyreactivity
19,QVQLVESGGGLVQAGGSLRLSCAASGRTFGDYAKGWYRQAPGKERELVAAISKSGGITYYADSVKGRFTISRDNAKNTVYLQMNSLKPEDTAVYYCAARRSGEGNYWGQGTQVTVSS,high polyreactivity
20,QVQLVESGGGLVQAGGSLRLSCAASGFTIYGYAMGWYSQAPGKERELVAAISSSGGRTYYADSVKGRCTISRDNAKNTVYLQMNSLKPEDTAVYYCAAEYRSYRDGYWGQGTQVTVSS,high polyreactivity
21,QVQLVESCGGLVQAGGSLRLSCADSGRTFYKYAMGWYRPAPVKERELVAAITSGGGRTYYADSVKGRFTISRDNAKNTVYLQMNSLKPEDTAVYYCNAVLPLAKYEYDSWGQGTQVTVSS,high polyreactivity
